35 sequences from the supplement of paper PMC7877785 can be followed below.

± gives the uncertainty stated by the source.

A short description of this data set: self-splicing fitness, log relative to wild type (ln ratio); higher = more splicing; Tetrahymena group I intron in knt gene, E. coli kanamycin selection, DiMSum; sequences stand for … in CUCUCU…GGAGGGAAAAGUUAUCAGGCAUGCACCUGGUAGCUAGUCUUUAAACCAAUAGAUUGCAUCGGUUUAAAAGGCAAGACCGUCAAAUUGCGGGAAAGGGGUCAACAGCCGUUCAGUACCAAGUCUCAGGGGAAACUUUGAGAUGGCCUUGCAAAGGGUAUGGUAAUAAGCUGACGGACAUGGUCCUAACCACGCAGCCAAGUCCUAAGUCAACAGAUCUUCUGUUGAUAUGGAUGCAGUUCACAGACUAAAUGUCGGUCGGGGAAGAUGUAUUCUUCUCAUAAGAUAUAGUCGGACCUCUCCUUAAUGGGAGCUAGCGGAUGAAGUGAUGCAACACUGGAGCCGCUGGGAACUAAUUUGUAUGCGAAAGUAUAUUGAUUAGUUUUGGAGUACUCGUGGUCG
The method in brief:
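Fitness was computed with DiMSum as the error-weighted combination of replicate fold changes, kanamycin versus none, each normalised to wild type. The library randomised all eight intron nucleotides of the P1ex region, with the intron placed in the knt kanamycin-resistance gene on pET-22b(+) in E. coli BL21(DE3). Six replicate transformations were grown overnight at 37°C or 30°C on LB agar with or without 25 μg/mL kanamycin, plus 100 μg/mL carbenicillin, 50 μM IPTG and 0.2% rhamnose. Pooled colonies were amplicon-sequenced on an Illumina HiSeq 2500.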

For GGGGAGCAAUAUUACGAAGU, the “self-splicing fitness (ln)” value (30 °C) was -2.04 ± 0.34.
On to GUCAAGCAAUAUUACGGUAC, for which the “self-splicing fitness (ln)” value (30 °C) was -3.07 ± 0.15 and the “self-splicing fitness (ln)” value (37 °C) was -0.924 ± 0.11.
In the case of CUUCAGCAAUAUUACGAUUC, the “self-splicing fitness (ln)” value is, setting by setting: (30 °C) -2.88 ± 0.21; (37 °C) -1.85 ± 0.16.
As for UCGAAGCAAUAUUACGAAUA, the “self-splicing fitness (ln)” value is -1.96 ± 0.2 (30 °C) and -1.76 ± 0.3 (37 °C).
In the same order, the values of ACCGAGCAAUAUUACGUCAA are -3.16 ± 0.19 and -2.36 ± 0.3.
In the same order, the values of UGGAAGCAAUAUUACGUGCU are -2.92 ± 0.19 and -1.7 ± 0.17.
In the case of ACGGAGCAAUAUUACGCAAU, the “self-splicing fitness (ln)” value was -2.81 ± 0.24 (30 °C) and -3.02 ± 0.43 (37 °C).
The like results for AGCAAGCAAUAUUACGUCGA were, in that order, -1.99 ± 0.11 and -0.323 ± 0.097.
In the same order, the values of CGCUAGCAAUAUUACGUGCA are -0.672 ± 0.095 and 0.116 ± 0.11.
In the same order, the values of AAAUAGCAAUAUUACGAGGU are -2.99 ± 0.26 and -1.28 ± 0.19.
UAGAAGCAAUAUUACGGCAU: the “self-splicing fitness (ln)” value reads like this: (30 °C) -1.96 ± 0.12; (37 °C) -0.323 ± 0.094.
The like results for GGCGAGCAAUAUUACGUGUC were, in that order, -4.05 ± 0.21 and -1.46 ± 0.16.
For GUUCAGCAAUAUUACGAAUU, the “self-splicing fitness (ln)” value runs as follows: (30 °C) -1.52 ± 0.14; (37 °C) -1.14 ± 0.14.
Consider AGCAAGCAAUAUUACGCUUA, for which the “self-splicing fitness (ln)” value (30 °C) is -2.94 ± 0.15 and the “self-splicing fitness (ln)” value (37 °C) was -1.71 ± 0.11.
In the same order, the values of CAAAAGCAAUAUUACGGAUU are -3.49 ± 0.1 and -2.87 ± 0.1.
In the same order, the values of GCCGAGCAAUAUUACGCCCU are -2.8 ± 0.25 and -0.0518 ± 0.2.
In the same order, the values of UGGGAGCAAUAUUACGUAUU are -2.76 ± 0.33 and -1.91 ± 0.28.
As to ACACAGCAAUAUUACGGCAU, the “self-splicing fitness (ln)” value by setting is: (30 °C) -1.12 ± 0.049; (37 °C) 0.227 ± 0.062.
On to GGGUAGCAAUAUUACGGAGG, for which the “self-splicing fitness (ln)” value (37 °C) is -0.988 ± 0.29.
For the sequence AGACAGCAAUAUUACGUCAC, the “self-splicing fitness (ln)” value was -3 ± 0.23 (30 °C) and -3.41 ± 0.19 (37 °C).
Regarding ACGCAGCAAUAUUACGCCGG, the “self-splicing fitness (ln)” value by setting is: (30 °C) -2 ± 0.11; (37 °C) -0.692 ± 0.15.
In the same order, the values of AGACAGCAAUAUUACGACUU are -0.384 ± 0.074 and 0.347 ± 0.099.
The like results for CGGAAGCAAUAUUACGAGCU were, in that order, -2.93 ± 0.21 and -3.07 ± 0.27.
In the same order, the values of CGAUAGCAAUAUUACGCCCG are -1.39 ± 0.18 and -1.44 ± 0.25.
Take UCCCAGCAAUAUUACGGCCA: the “self-splicing fitness (ln)” value was -0.679 ± 0.095 (30 °C) and -0.115 ± 0.12 (37 °C).
In the same order, the values of AUUCAGCAAUAUUACGGUUC are -1.64 ± 0.13 and -0.855 ± 0.16.
The like results for CGGUAGCAAUAUUACGGUUU were, in that order, -3.36 ± 0.16 and -1.83 ± 0.15.
The like results for UCCCAGCAAUAUUACGUUUC were, in that order, -4.35 ± 0.34 and -2.4 ± 0.28.
Turning to UGGAAGCAAUAUUACGGGUC, under “37 °C”, the “self-splicing fitness (ln)” value is -3.04 ± 0.38.
Turning to UAAUAGCAAUAUUACGCAGU, the “self-splicing fitness (ln)” value by setting is: (30 °C) -3.55 ± 0.37; (37 °C) -2.1 ± 0.34.
In the same order, the values of CGUCAGCAAUAUUACGUGCA are -0.497 ± 0.057 and -0.0444 ± 0.072.
For UAAGAGCAAUAUUACGGCAC, under “37 °C”, the “self-splicing fitness (ln)” value is -1.16 ± 0.48.
Still for that read-out and setting: in the case of CCUGAGCAAUAUUACGCUUG it was -1.23 ± 0.28.
For CGCCAGCAAUAUUACGCUUC, the “self-splicing fitness (ln)” value (30 °C) is -2.77 ± 0.26 and the “self-splicing fitness (ln)” value (37 °C) was -3.27 ± 0.37.
For the sequence UGUGAGCAAUAUUACGCGCA, the “self-splicing fitness (ln)” value by setting is: (30 °C) -1.34 ± 0.44; (37 °C) -0.203 ± 0.48.
